Results reported in the supplement of paper PMC10724198.
± gives the standard deviation of the averaged measurements.

The sequences below were run on Saccharomyces cerevisiae (assay: protein stability index of tFT-peptide fusion (C-terminal peptide) (PSI (0-1 scale)); higher = more stable (slower turnover)). Settings: genetic background: wild type; temperature: 30 C.
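Note: PSI is a weighted mean of sequencing reads over stability bins, variants kept only with over 10 reads, mCherry proximal and sfGFP distal, peptide attached via GGGS linker.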

Row | Sequence | protein stability index
1 | RHLSRSVSKVLR | 0.629 ± 0.06
2 | RHPTHPVSSLNP | 0.777 ± 0.05
3 | RHSCLRFPPLHL | 0.694 ± 0.1
4 | RHSHSLSITHLP | 0.675 ± 0.091
5 | RHYKNKGQTRVR | 0.699 ± 0.051
6 | RIEEQMIKNEWE | 0.6932 ± 0.0047
7 | RIGELRYATQMK | 0.676 ± 0.052
8 | RILLIRRKEKYL | 0.5578 ± 0.0028
9 | RILPSPVSAGGF | 0.62 ± 0.026
10 | RINKIKRKKRIK | 0.618 ± 0.062
11 | RIPIGDSHIALK | 0.692 ± 0.1
12 | RIRGGVLYKGVG | 0.666 ± 0.016
13 | RIRLNHAMSTVV | 0.625 ± 0.019
14 | RIRRITAGRQRY | 0.793 ± 0.067
15 | RIRVKSLAPSPS | 0.74 ± 0.17
16 | RITWRSKKGLVI | 0.71 ± 0.031
17 | RKAPLLFSLSHK | 0.6761 ± 0.0031
18 | RKATGVLQVQDY | 0.749 ± 0.14
19 | RKEEEGNYWNRI | 0.651 ± 0.02
20 | RKEKNRKEKSIQ | 0.668 ± 0.013
21 | RKFGQRQKRECN | 0.7085 ± 0.0066
22 | RKGKARKKQKRI | 0.721 ± 0.1
23 | RKICVEDIKESI | 0.669 ± 0.013
24 | RKIIIINLQKIK | 0.586 ± 0.024
25 | RKIQNASLGRGA | 0.7 ± 0.037

Row | Sequence | protein stability index
26 | RKISLNSPPRES | 0.757 ± 0.1
27 | RKKHSHKKAKKK | 0.702 ± 0.014
28 | RKKKNQKHKKKN | 0.705 ± 0.026
29 | RKKKSNLMDDDD | 0.696 ± 0.031
30 | RKKRERIREKKN | 0.494 ± 0.043
31 | RKKRNKQENETK | 0.748 ± 0.013
32 | RKKRNKTKIEKR | 0.719 ± 0.021
33 | RKKVRKTKKIKK | 0.628 ± 0.089
34 | RKLDRDLTPESF | 0.666 ± 0.048
35 | RKNEKKKKKNKK | 0.6645 ± 0.0024
36 | RKNNKKKENKKK | 0.7954 ± 0.0014
37 | RKNQGKKREPRA | 0.653 ± 0.079
38 | RKSSAGLERATG | 0.685 ± 0.018
39 | RKYGWSGIGCRA | 0.659 ± 0.016
40 | RLASPSIISSTL | 0.702 ± 0.0076
41 | RLCDAAVGPEGG | 0.674 ± 0.05
42 | RLETKNITRKHI | 0.681 ± 0.018
43 | RLFRRSPTPALR | 0.8 ± 0.067
44 | RLFSFPPPPTPP | 0.705 ± 0.011
45 | RLFTLVPIGPFM | 0.704 ± 0.055
46 | RLGGGGVGGAGV | 0.699 ± 0.019
47 | RLGGGGVGVAGV | 0.679 ± 0.00083
48 | RLGGRGGRLGAE | 0.655 ± 0.0068
49 | RLGLVVRPCSPP | 0.6864 ± 0.0015
50 | RLGYSWGECPGG | 0.699 ± 0.012

Row | Sequence | protein stability index
51 | RLKFMTGLFLWS | 0.73 ± 0.019
52 | RLKGSPHPVFLY | 0.753 ± 0.055
53 | RLLGRPFRHERG | 0.698 ± 0.043
54 | RLLKRAVRKIFT | 0.61808 ± 0.00049
55 | RLPAPPTVPLPP | 0.6 ± 0.042
56 | RLPPALRRNAPP | 0.665 ± 0.18
57 | RLPSLTGLELFS | 0.685 ± 0.025
58 | RLPTRRSALMGL | 0.738 ± 0.043
59 | RLPVPAAFSSSI | 0.79 ± 0.047
60 | RLRPRRNMIDHA | 0.724 ± 0.057
61 | RLRRCPWLRAWR | 0.7086 ± 0.005
62 | RLSGRRLVNYRP | 0.641 ± 0.036
63 | RLSGWGLGVWQE | 0.681 ± 0.042
64 | RLSIEVREWGDG | 0.642 ± 0.075
65 | RLSSLSSPPPAF | 0.693 ± 0.07
66 | RLSSVPSRSLPA | 0.733 ± 0.096
67 | RLSVRPGPLRLL | 0.68 ± 0.025
68 | RLVFSSCLNALF | 0.724 ± 0.073
69 | RLVLTHVSRCWQ | 0.673 ± 0.065
70 | RLVRSPSRFSWR | 0.667 ± 0.031
71 | RLYGILLLSGKE | 0.683 ± 0.019
72 | RMLVNKLSAFFI | 0.64 ± 0.053
73 | RMSLGLHGVMRC | 0.683 ± 0.045
74 | RNCELQSLSSTL | 0.732 ± 0.036
75 | RNDAARLLGESG | 0.698 ± 0.018

Row | Sequence | protein stability index
76 | RNGFGSWFRWKM | 0.7014 ± 0.0069
77 | RNGGSTWPLLGA | 0.721 ± 0.017
78 | RNILMFSNGVDE | 0.681 ± 0.014
79 | RNLRFEVLAVVI | 0.5272 ± 0.0049
80 | RNPYNTNTVSNI | 0.732 ± 0.08
81 | RNRKQEKKENKN | 0.695 ± 0.022
82 | RNRNKKIIREKK | 0.7 ± 0.033
83 | RNSVGGHENWNQ | 0.703 ± 0.11
84 | RPAASTKWAVQP | 0.6923 ± 0.0021
85 | RPAVSCYTGGDH | 0.7083 ± 0.0056
86 | RPDRPSGLLPRP | 0.701 ± 0.039
87 | RPFHLLPPPPPL | 0.73 ± 0.019
88 | RPFLVGRISFSS | 0.693 ± 0.046
89 | RPFPLPPRPSPP | 0.673 ± 0.13
90 | RPGSMWAQGGVG | 0.566 ± 0.0078
91 | RPISPIAVGSVV | 0.6747 ± 0.0013
92 | RPLAVPPRPSPV | 0.729 ± 0.049
93 | RPLLIYSPFPLF | 0.662 ± 0.075
94 | RPLNLPPPPAPF | 0.659 ± 0.072
95 | RPLPPLPRPPSP | 0.557 ± 0.02
96 | RPPFSPPSDLPL | 0.645 ± 0.025
97 | RPPGQVSEALEW | 0.68961 ± 3.4e-05
98 | RPPHSNPPRLVI | 0.711 ± 0.045
99 | RPPLLSPTRTLP | 0.707 ± 0.15
100 | RPPPHLTPRVSL | 0.689 ± 0.047

Row | Sequence | protein stability index
101 | RPPPHYPHHTAS | 0.673 ± 0.018
102 | RPPPPPPPSPHL | 0.692 ± 0.041
103 | RPPPPRLTPPRL | 0.756 ± 0.084
104 | RPPSLSPAPAPP | 0.73 ± 0.027
105 | RPPVGTPPLPHS | 0.66 ± 0.0091
106 | RPQARAQRRQAC | 0.583 ± 0.034
107 | RPRKTVTDLMAG | 0.663 ± 0.01
108 | RPRNRRGGRGDE | 0.672 ± 0.0062
109 | RPSLPPRSPPPS | 0.767 ± 0.069
110 | RPSPMPTATPAT | 0.701 ± 0.029
111 | RPSPPPTPPGPH | 0.656 ± 0.039
112 | RPSPVLRASHPP | 0.638 ± 0.0099
113 | RPSRPPPRLLFA | 0.644 ± 0.03
114 | RPTPSHRTPSIG | 0.723 ± 0.016
115 | RPVQRLVPLTPR | 0.706 ± 0.054
116 | RPVRLLPCVCHF | 0.679 ± 0.017
117 | RQANQVSTSAEN | 0.726 ± 0.11
118 | RQLPMHLTSPGT | 0.66 ± 0.021
119 | RQSDPFCCSTHP | 0.7449 ± 0.0023
120 | RQTTTPHDRDGR | 0.566 ± 0.049
121 | RQVERRARRDRV | 0.671 ± 0.055
122 | RRAPASAFPHSP | 0.688 ± 0.06
123 | RRAPRQKLIPAK | 0.6768 ± 0.0055
124 | RRDRFSLRGFTE | 0.701 ± 0.013
125 | RREASLGSYSFE | 0.69778 ± 0.00039

Row | Sequence | protein stability index
126 | RREDWQEKRYGL | 0.761 ± 0.083
127 | RRERRKKTETDK | 0.7348 ± 0.0073
128 | RRGAVHWKQFTR | 0.732 ± 0.072
129 | RRGAVWDLVGDG | 0.571 ± 0.029
130 | RRGDMSEGEREE | 0.672 ± 0.052
131 | RRGVPIKKPRYF | 0.539 ± 0.029
132 | RRGYLVPLPSHA | 0.669 ± 0.039
133 | RRHGTDEHKTAD | 0.674 ± 0.016
134 | RRKGRKTSMRNG | 0.667 ± 0.048
135 | RRKRKQQNTTTE | 0.685 ± 0.016
136 | RRKRQKEGEIRE | 0.7362 ± 0.0064
137 | RRLATRMGPCDA | 0.682 ± 0.011
138 | RRLGVACCVVEG | 0.599 ± 0.0061
139 | RRLLERSIKRSE | 0.696 ± 0.016
140 | RRLSRPPNLSRH | 0.676 ± 0.021
141 | RRMCARRSAAIV | 0.665 ± 0.046
142 | RRNSAGCRLDKM | 0.662 ± 0.09
143 | RRPHLLCSPARL | 0.883 ± 0.012
144 | RRREGGQGERGK | 0.694 ± 0.087
145 | RRRGEREKRPRA | 0.653 ± 0.021
146 | RRRLRSGYCCLV | 0.6861 ± 0.00091
